{
  "source": "paper PMC2063917",
  "key": {"His6-TIP47(152-434)": {"molecular_target": "His6-TIP47(152-434) (UniProt O60664)", "sequence (O60664 152-434)": "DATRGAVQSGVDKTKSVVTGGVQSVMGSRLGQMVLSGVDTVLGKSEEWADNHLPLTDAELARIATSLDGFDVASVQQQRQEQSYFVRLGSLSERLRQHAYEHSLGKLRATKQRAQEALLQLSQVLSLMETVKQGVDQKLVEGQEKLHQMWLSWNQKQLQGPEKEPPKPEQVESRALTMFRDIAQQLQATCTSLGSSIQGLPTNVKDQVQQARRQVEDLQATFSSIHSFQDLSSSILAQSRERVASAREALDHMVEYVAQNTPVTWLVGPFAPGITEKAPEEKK", "assay": "pull-down"}, "[1]": {"molecular_target": "NH2-terminal His6-tagged p40 (UniProt Q7Z6M1)", "sequence (Q7Z6M1 whole entry)": "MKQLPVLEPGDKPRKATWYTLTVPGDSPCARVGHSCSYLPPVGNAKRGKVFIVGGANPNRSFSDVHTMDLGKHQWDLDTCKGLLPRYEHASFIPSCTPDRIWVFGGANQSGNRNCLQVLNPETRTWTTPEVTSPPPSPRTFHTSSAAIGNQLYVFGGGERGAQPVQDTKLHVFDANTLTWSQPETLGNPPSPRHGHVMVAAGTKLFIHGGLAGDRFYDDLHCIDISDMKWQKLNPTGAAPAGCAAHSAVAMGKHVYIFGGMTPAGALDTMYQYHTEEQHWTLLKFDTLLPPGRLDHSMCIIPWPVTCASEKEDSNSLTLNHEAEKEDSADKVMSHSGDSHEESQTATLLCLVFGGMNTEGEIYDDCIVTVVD", "assay": "pull-down"}},
  "data": [
    {"substance": "Rab9-CLLL, untagged (from UniProt P24408 1-201) (natural protein)", "values": [
      {"measurement": "pmol Rab9 bound (taken as 100% binding)", "setting": "His6-TIP47(152-434)", "result": 1.5, "unit": "pmol"},
      {"measurement": "pmol Rab9 bound (taken as 100% binding)", "setting": "[1]", "result": 3.9, "unit": "pmol"}
    ]}
  ]
}
